The target of this experiment is postsynaptic density 95 (PSD95), wild type (mouse (endogenous in hippocampus and spinal cord)) (UniProt Q62108). As to the kind of experiment: co-IP.
Chain of postsynaptic density 95 (PSD95), wild type (mouse (endogenous in hippocampus and spinal cord)) (Q62108 whole entry): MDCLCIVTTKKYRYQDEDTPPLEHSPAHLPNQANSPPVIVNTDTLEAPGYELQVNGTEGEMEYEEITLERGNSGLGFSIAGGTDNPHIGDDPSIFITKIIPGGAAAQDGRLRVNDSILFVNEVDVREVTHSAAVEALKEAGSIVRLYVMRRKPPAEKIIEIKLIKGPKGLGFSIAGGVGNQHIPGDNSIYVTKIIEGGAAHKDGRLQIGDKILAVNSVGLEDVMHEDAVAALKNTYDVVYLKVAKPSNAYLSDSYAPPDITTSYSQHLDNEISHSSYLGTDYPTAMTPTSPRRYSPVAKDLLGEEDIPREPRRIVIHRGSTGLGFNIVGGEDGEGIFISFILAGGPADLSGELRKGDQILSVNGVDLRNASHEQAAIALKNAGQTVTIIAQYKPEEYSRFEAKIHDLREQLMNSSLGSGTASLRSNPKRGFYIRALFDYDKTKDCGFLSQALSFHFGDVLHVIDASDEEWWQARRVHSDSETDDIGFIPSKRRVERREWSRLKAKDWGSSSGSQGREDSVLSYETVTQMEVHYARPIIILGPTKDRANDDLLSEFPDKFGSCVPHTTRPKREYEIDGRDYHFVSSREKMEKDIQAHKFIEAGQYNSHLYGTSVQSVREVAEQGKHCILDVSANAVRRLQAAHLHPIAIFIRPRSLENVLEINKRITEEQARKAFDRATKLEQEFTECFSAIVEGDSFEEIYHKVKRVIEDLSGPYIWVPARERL

Consider “phosphatidylinositol-3-kinase-C2α (PI(3)K-C2α) (from UniProt Q61194 1-1686) (enzyme)”, for which the PI(3)K-C2α/PSD95 ratio (densitometry), ipsilateral to formalin was 0.053 and the PI(3)K-C2α/PSD95 ratio (densitometry), naive is 0.019.

The record behind these values is paper PMC2892321.
